The text below walks through data of US20230201322A1 (ENTEROME S A, published 2023).

Test [1] addresses T1, HLA-A*0201 molecule expressed on the human tumoral cell T2 (human).
T1 construct: Empty or peptide-receptive class I molecule on T2 cells; surface level read with anti-HLA-A2 antibody BB7.2-PE after incubation with the peptide; also called HLA-A2
Briefly: T2 cell HLA-A2 FACS (BB7.2-PE), peptide 1 µM. The method, then: (§1) T2 cells (2·10⁵ cells per well) are incubated with decreasing concentrations of peptides from 100 μM to 0.1 μM in a AIMV medium supplemented with 100 ng/μl of human β2m at 37° C. for 16 hours. Cells are then washed two times and marked with the anti-HLA-A2 antibody coupled to PE (clone BB7.2, BD Pharmagen).
(§2) The relative affinity is then determined as follows: […]

The target of test [2] is T1, HLA-A*0201 molecule expressed on the …. Briefly: T2 cell HLA-A2 FACS (BB7.2-PE), peptide 100 µM. The method, then: as §1, §2
The target is the same in test [3]. Briefly: T2 cell HLA-A2 FACS (BB7.2-PE), peptide 10 µM. On the procedure:
as §1, §2

Test [4] shares this target. Kind of test: T2 cell HLA-A2 FACS (BB7.2-PE), peptide 0.1 µM. On the procedure:
as §1, §2

The target is the same in test [5]. Kind of test: T2 cell HLA-A2 FACS (BB7.2-PE); ratio of 20% concentrations against HIV pol 589-597. The method, then:
as §1, §2

The target is the same in test [6]. Kind of test: T2 cell HLA-A2 FACS (BB7.2-PE), peptide titration. The method, then:
as §1, §2

As to GLPPDVQRV [reference human peptide derived from MMP2, MMP2-H (GLPPDVQRV)], the “HLA-A2 labelling as % of reference peptide HIV pol 589-597 at 100 µM” value (from here on “HLA-A2 labelling as %”) in test [1] turned out to be 17.8%; in test [2], 154%; in test [3] it was 66.3%; in test [4], 5.41%. Further, the Relative affinity in test [5] was 0.06. Further, the “Conc. inducing 20% of HLA-A2 expression” value in test [6] came out at 1.76 µM.

Consider SLPPDVQQV [antigenic peptide MMP2-B (SLPPDVQQV)], for which the “HLA-A2 labelling as %” value in test [1] was 24.6%; in test [2], 131%; in test [3], 96%; in test [4] it was 4.69%. In addition, in test [5], the Relative affinity was 0.03. The “Conc. inducing 20% of HLA-A2 expression” value in test [6] turned out to be 0.88 µM.

Turning to ILLGVVFGI [antigenic peptide ERBB2-3B4 (ILLGVVFGI)], the “HLA-A2 labelling as %” value in test [1] was 26.1%; in test [2] it was 265%; in test [3], 138%; in test [4], -11.6%. Besides, in test [5], the Relative affinity is 0.03. The “Conc. inducing 20% of HLA-A2 expression” value in test [6] turned out to be 0.9 µM.

For YLAVFLPIV [antigenic peptide STEAP-B2 (YLAVFLPIV)], the “HLA-A2 labelling as %” value in test [1] was 4.87%; in test [2], 97.9%; in test [3], 27.7%; in test [4] it was -0.34%. Moreover, in test [5], the Relative affinity stood at 0.27. For the same molecule, in test [6], the “Conc. inducing 20% of HLA-A2 expression” value worked out at 8.22 µM.

Regarding MLAVFLPLV [antigenic peptide STEAP-B1 (MLAVFLPLV)], the “HLA-A2 labelling as %” value in test [1] was found to be 8.92%; in test [2], 132%; in test [3] it was 45.1%; in test [4], 6.67%. For the same molecule, the Relative affinity in test [5] was found to be 0.16. In test [6], the “Conc. inducing 20% of HLA-A2 expression” value stood at 5 µM.

With ITSDVPFSV [antigenic peptide PMEL-B (ITSDVPFSV)], the “HLA-A2 labelling as %” value turned out to be 3.62% in test [1], 74.8% in test [2], 7.93% in test [3] and 4.69% in test [4]. Moreover, the Relative affinity in test [5] was 0.59. For the same molecule, the “Conc. inducing 20% of HLA-A2 expression” value in test [6] came to 18.2 µM.

Consider VMLGVVFGV [antigenic peptide ERBB2-3B1 (VMLGVVFGV)], for which the “HLA-A2 labelling as %” value in test [1] is -12.9%; in test [2], 122%; in test [3], 26.7%; in test [4] it was -16%. Moreover, in test [5], the Relative affinity turned out to be 0.25. Also, in test [6], the “Conc. inducing 20% of HLA-A2 expression” value stood at 9 µM.

Take VMLGVVFGI [antigenic peptide ERBB2-3B3 (VMLGVVFGI)]: the “HLA-A2 labelling as %” value is -10.6% in test [1], 179% in test [2], 16.6% in test [3] and -16.3% in test [4]. The Relative affinity in test [5] worked out at 0.35. Further, the “Conc. inducing 20% of HLA-A2 expression” value in test [6] is 12.5 µM.

Take MIAVFLPIV [reference human peptide derived from STEAP, STEAP-H (MIAVFLPIV)]: the “HLA-A2 labelling as %” value is -4.47% in test [1], 102% in test [2], 14.9% in test [3] and 0.11% in test [4]. In addition, in test [5], the Relative affinity worked out at 1.08. In addition, the “Conc. inducing 20% of HLA-A2 expression” value in test [6] amounted to 33.5 µM.

Regarding RLLEETDLV [antigenic peptide ERBB2-1B (RLLEETDLV)], the “HLA-A2 labelling as %” value in test [1] is 2.86%; in test [2], 297%; in test [3], 26.4%; in test [4], -1.18%. The Relative affinity in test [5] is 0.26. In addition, the “Conc. inducing 20% of HLA-A2 expression” value in test [6] came to 9.5 µM.

Regarding KLVEWLAML [antigenic peptide MAGE C1B (KLVEWLAML)], the “HLA-A2 labelling as %” value was found to be 3.97% in test [1], 109% in test [2], 21.4% in test [3] and 2.45% in test [4]. In addition, the Relative affinity in test [5] is 0.31. Besides, in test [6], the “Conc. inducing 20% of HLA-A2 expression” value was determined as 30.9 µM.

Take KVVEFLAML [reference human peptide derived from MAGE C1, MAGE C1H (KVVEFLAML)]: the “HLA-A2 labelling as %” value turned out to be 7.12% in test [1], 32.3% in test [2], 7.84% in test [3] and 5.77% in test [4]. For the same molecule, the Relative affinity in test [5] was 1.94. In addition, in test [6], the “Conc. inducing 20% of HLA-A2 expression” value turned out to be 60.1 µM.
